Target: tetrodotoxin (TTX)-resistant variant of sodium channel Nav1.6
Experiment: cell-based or functional assay

Question: With “full-length FHF2A protein (from UniProt Q92913 1-245)” as the substance, how does the channels not recovering from inactivation within 20 msec (two-pulse whole cell voltage clamp, FIG. 2) (fraction of channels) read?
Answer: 0.33

Question: And the percent of channels undergoing long-term inactivation (voltage dependence protocol, FIG. 4)?
Answer: 35 to 40%
